According to patent CN114133451A (HANGZHOU MEDICAL COLLEGE, dated 2022):

Molecular target: T1, 重组弓形虫毒力因子ROP18 (Toxoplasma gondii, UniProt Q2PAY2 1-554)
T1 construct: also called 弓形虫棒状体蛋白18; rhoptry protein 18; not shown: vector-derived tag of pET28a (fusion protein purified on Ni-NTA)
T1 sequence (looked up): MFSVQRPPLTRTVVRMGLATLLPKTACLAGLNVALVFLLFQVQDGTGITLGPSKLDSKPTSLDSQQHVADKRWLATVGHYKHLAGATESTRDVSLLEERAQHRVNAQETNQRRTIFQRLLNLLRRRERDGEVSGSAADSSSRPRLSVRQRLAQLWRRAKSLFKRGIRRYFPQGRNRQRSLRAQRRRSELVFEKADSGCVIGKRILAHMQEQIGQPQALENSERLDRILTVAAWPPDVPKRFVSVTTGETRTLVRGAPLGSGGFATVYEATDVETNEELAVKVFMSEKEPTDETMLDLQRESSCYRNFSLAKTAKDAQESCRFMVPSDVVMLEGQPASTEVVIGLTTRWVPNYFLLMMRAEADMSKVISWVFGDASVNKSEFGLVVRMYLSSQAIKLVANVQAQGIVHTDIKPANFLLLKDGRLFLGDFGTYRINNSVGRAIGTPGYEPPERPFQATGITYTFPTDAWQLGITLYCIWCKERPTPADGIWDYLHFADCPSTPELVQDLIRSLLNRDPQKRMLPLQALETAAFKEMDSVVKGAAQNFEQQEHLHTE
Assay: SPR, Biacore T100, 1:1 binding fit

B1: 弓形虫毒力因子ROP18纳米抗体22号克隆株 (VHH)
VHH: QVQLVESGGGSVQAGGSLRLSCVASRYTYTYSTYCLGWFRQAPGKEREEIAIIDSDGGARYADSVKGRFTISRDNAKSTLYLHMNSLKPDDTAMYSCAAGRPAPSLGYKCMYNSRHKGTLVTVSS
notes: also called 毒力因子纳米抗体; pMECS-ROP18-22; not shown: tag from the pMECS vector (purified on a nickel column, detected with anti-His a)
Work on B1 yielded a Kd of 2.72 nM.
